Measured values as given in IntAct's records for PubMed 25910212.

B1: Transmembrane protein 43 (Homo sapiens), Q9BTV4 (parent)
chain: MAANYSSTSTRREHVKVKTSSQPGFLERLSETSGGMFVGLMAFLLSFYLIFTNEGRALKTATSLAEGLSLVVSPDSIHSVAPENEGRLVHIIGALRTSKLLSDPNYGVHLPAVKLRRHVEMYQWVETEESREYTEDGQVKKETRYSYNTEWRSEIINSKNFDREIGHKNPSAMAVESFMATAPFVQIGRFFLSSGLIDKVDNFKSLSLSKLEDPHVDIIRRGDFFYHSENPKYPEVGDLRVSFSYAGLSGDDPDLGPAHVVTVIARQRGDQLVPFSTKSGDTLLLLHHGDFSAEEVFHRELRSNSMKTWGLRAAGWMAMFMGLNLMTRILYTLVDWFPVFRDLVNIGLKAFAFCVATSLTLLTVAAGWLFYRPLWALLIAGLALVPILVARTRVPAKKLE
partner: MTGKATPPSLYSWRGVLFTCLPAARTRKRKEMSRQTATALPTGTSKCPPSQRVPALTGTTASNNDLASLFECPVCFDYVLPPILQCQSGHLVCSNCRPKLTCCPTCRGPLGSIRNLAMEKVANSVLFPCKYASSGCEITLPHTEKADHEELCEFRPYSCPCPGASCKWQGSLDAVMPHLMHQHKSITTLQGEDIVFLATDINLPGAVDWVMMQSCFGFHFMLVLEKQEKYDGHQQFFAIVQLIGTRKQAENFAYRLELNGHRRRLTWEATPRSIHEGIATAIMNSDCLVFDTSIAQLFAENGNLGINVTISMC
B2: Inhibin alpha chain (Homo sapiens), P05111 (parent)
chain: MVLHLLLFLLLTPQGGHSCQGLELARELVLAKVRALFLDALGPPAVTREGGDPGVRRLPRRHALGGFTHRGSEPEEEEDVSQAILFPATDASCEDKSAARGLAQEAEEGLFRYMFRPSQHTRSRQVTSAQLWFHTGLDRQGTAASNSSEPLLGLLALSPGGPVAVPMSLGHAPPHWAVLHLATSALSLLTHPVLVLLLRCPLCTCSARPEATPFLVAHTRTRPPSGGERARRSTPLMSWPWSPSALRLLQRPPEEPAAHANCHRVALNISFQELGWERWIVYPPSFIFHYCHGGCGLHIPPNLSLPVPGAPPTPAQPYSLLPGAQPCCAALPGTMRPLHVRTTSDGGYSFKYETVPNLLTQHCACI
partner: B1 partner
B3: Neutrophil cytosol factor 1 (Homo sapiens), P14598 (parent)
chain: MGDTFIRHIALLGFEKRFVPSQHYVYMFLVKWQDLSEKVVYRRFTEIYEFHKTLKEMFPIEAGAINPENRIIPHLPAPKWFDGQRAAENRQGTLTEYCSTLMSLPTKISRCPHLLDFFKVRPDDLKLPTDNQTKKPETYLMPKDGKSTATDITGPIILQTYRAIANYEKTSGSEMALSTGDVVEVVEKSESGWWFCQMKAKRGWIPASFLEPLDSPDETEDPEPNYAGEPYVAIKAYTAVEGDEVSLLEGEAVEVIHKLLDGWWVIRKDDVTGYFPSMYLQKSGQDVSQAQRQIKRGAPPRRSSIRNAHSIHQRSRKRLSQDAYRRNSVRFLQQRRRQARPGPQSPGSPLEEERQTQRSKPQPAVPPRPSADLILNRCSESTKRKLASAV
B4: AMP deaminase 3 (Homo sapiens), Q01432 (parent)
chain: MPRQFPKLNISEVDEQVRLLAEKVFAKVLREEDSKDALSLFTVPEDCPIGQKEAKERELQKELAEQKSVETAKRKKSFKMIRSQSLSLQMPPQQDWKGPPAASPAMSPTTPVVTGATSLPTPAPYAMPEFQRVTISGDYCAGITLEDYEQAAKSLAKALMIREKYARLAYHRFPRITSQYLGHPRADTAPPEEGLPDFHPPPLPQEDPYCLDDAPPNLDYLVHMQGGILFVYDNKKMLEHQEPHSLPYPDLETYTVDMSHILALITDGPTKTYCHRRLNFLESKFSLHEMLNEMSEFKELKSNPHRDFYNVRKVDTHIHAAACMNQKHLLRFIKHTYQTEPDRTVAEKRGRKITLRQVFDGLHMDPYDLTVDSLDVHAGRQTFHRFDKFNSKYNPVGASELRDLYLKTENYLGGEYFARMVKEVARELEESKYQYSEPRLSIYGRSPEEWPNLAYWFIQHKVYSPNMRWIIQVPRIYDIFRSKKLLPNFGKMLENIFLPLFKATINPQDHRELHLFLKYVTGFDSVDDESKHSDHMFSDKSPNPDVWTSEQNPPYSYYLYYMYANIMVLNNLRRERGLSTFLFRPHCGEAGSITHLVSAFLTADNISHGLLLKKSPVLQYLYYLAQIPIAMSPLSNNSLFLEYSKNPLREFLHKGLHVSLSTDDPMQFHYTKEALMEEYAIAAQVWKLSTCDLCEIARNSVLQSGLSHQEKQKFLGQNYYKEGPEGNDIRKTNVAQIRMAFRYETLCNELSFLSDAMKSEEITALTN
B5: Nuclear receptor subfamily 0 group B member 1 (Homo sapiens), P51843 (parent)
chain: MAGENHQWQGSILYNMLMSAKQTRAAPEAPETRLVDQCWGCSCGDEPGVGREGLLGGRNVALLYRCCFCGKDHPRQGSILYSMLTSAKQTYAAPKAPEATLGPCWGCSCGSDPGVGRAGLPGGRPVALLYRCCFCGEDHPRQGSILYSLLTSSKQTHVAPAAPEARPGGAWWDRSYFAQRPGGKEALPGGRATALLYRCCFCGEDHPQQGSTLYCVPTSTNQAQAAPEERPRAPWWDTSSGALRPVALKSPQVVCEAASAGLLKTLRFVKYLPCFQVLPLDQQLVLVRNCWASLLMLELAQDRLQFETVEVSEPSMLQKILTTRRRETGGNEPLPVPTLQHHLAPPAEARKVPSASQVQAIKCFLSKCWSLNISTKEYAYLKGTVLFNPDVPGLQCVKYIQGLQWGTQQILSEHTRMTHQGPHDRFIELNSTLFLLRFINANVIAELFFRPIIGTVSMDDMMLEMLCTKI
B6: Plakophilin-2 (Homo sapiens), Q99959-2 (parent)
chain: MAAPGAPAEYGYIRTVLGQQILGQLDSSSLALPSEAKLKLAGSSGRGGQTVKSLRIQEQVQQTLARKGRSSVGNGNLHRTSSVPEYVYNLHLVENDFVGGRSPVPKTYDMLKAGTTATYEGRWGRGTAQYSSQKSVEERSLRHPLRRLEISPDSSPERAHYTHSDYQYSQRSQAGHTLHHQESRRAALLVPPRYARSEIVGVSRAGTTSRQRHFDTYHRQYQHGSVSDTVFDSIPANPALLTYPRPGTSRSMGNLLEKENYLTAGLTVGQVRPLVPLQPVTQNRASRSSWHQSSFHSTRTLREAGPSVAVDSSGRRAHLTVGQAAAGGSGNLLTERSTFTDSQLGNADMEMTLERAVSMLEADHMLPSRISAAATFIQHECFQKSEARKRVNQLRGILKLLQLLKVQNEDVQRAVCGALRNLVFEDNDNKLEVAELNGVPRLLQVLKQTRDLETKKQITGLLWNLSSNDKLKNLMITEALLTLTENIIIPFSGWPEGDYPKANGLLDFDIFYNVTGCLRNMSSAGADGRKAMRRCDGLIDSLVHYVRGTIADYQPDDKATENCVCILHNLSYQLEAELPEKYSQNIYIQNRNIQTDNNKSIGCFGSRSRKVKEQYQDVPMPEEKSNPKGVEWLWHSIVIRMYLSLIAKSVRNYTQEASLGALQNLTAGSGPMPTSVAQTVVQKESGLQHTRKMLHVGDPSVKKTAISLLRNLSRNLSLQNEIAKETLPDLVSIIPDTVPSTDLLIETTASACYTLNNIIQNSYQNARDLLNTGGIQKIMAISAGDAYASNKASKAASVLLYSLWAHTELHHAYKKAQFKKTDFVNSRTAKAYHSLKD
B7: U4/U6 small nuclear ribonucleoprotein Prp31 (Homo sapiens), Q8WWY3 (parent)
chain: MSLADELLADLEEAAEEEEGGSYGEEEEEPAIEDVQEETQLDLSGDSVKTIAKLWDSKMFAEIMMKIEEYISKQAKASEVMGPVEAAPEYRVIVDANNLTVEIENELNIIHKFIRDKYSKRFPELESLVPNALDYIRTVKELGNSLDKCKNNENLQQILTNATIMVVSVTASTTQGQQLSEEELERLEEACDMALELNASKHRIYEYVESRMSFIAPNLSIIIGASTAAKIMGVAGGLTNLSKMPACNIMLLGAQRKTLSGFSSTSVLPHTGYIYHSDIVQSLPPDLRRKAARLVAAKCTLAARVDSFHESTEGKVGYELKDEIERKFDKWQEPPPVKQVKPLPAPLDGQRKKRGGRRYRKMKERLGLTEIRKQANRMSFGEIEEDAYQEDLGFSLGHLGKSGSGRVRQTQVNEATKARISKTLQRTLQKQSVVYGGKSTIRDRSSGTASSVAFTPLQGLEIVNPQAAEKKVAEANQKYFSSMAEFLKVKGEKSGLMST
partner: B1 partner
B8: Regulator of G-protein signaling 2 (Homo sapiens), P41220 (parent)
chain: MQSAMFLAVQHDCRPMDKSAGSGHKSEEKREKMKRTLLKDWKTRLSYFLQNSSTPGKPKTGKKSKQQAFIKPSPEEAQLWSEAFDELLASKYGLAAFRAFLKSEFCEENIEFWLACEDFKKTKSPQKLSSKARKIYTDFIEKEAPKEINIDFQTKTLIAQNIQEATSGCFTTAQKRVYSLMENNSYPRFLESEFYQDLCKKPQITTEPHAT
B9: ATP synthase mitochondrial F1 complex assembly factor 2 (Homo sapiens), Q8N5M1 (parent)
chain: MWRSCLRLRDGGRRLLNRPAGGPSASMSPGPTIPSPARAYAPPTERKRFYQNVSITQGEGGFEINLDHRKLKTPQAKLFTVPSEALAIAVATEWDSQQDTIKYYTMHLTTLCNTSLDNPTQRNKDQLIRAAVKFLDTDTICYRVEEPETLVELQRNEWDPIIEWAEKRYGVEISSSTSIMGPSIPAKTREVLVSHLASYNTWALQGIEFVAAQLKSMVLTLGLIDLRLTVEQAVLLSRLEEEYQIQKWGNIEWAHDYELQELRARTAAGTLFIHLCSESTTVKHKLLKE
partner: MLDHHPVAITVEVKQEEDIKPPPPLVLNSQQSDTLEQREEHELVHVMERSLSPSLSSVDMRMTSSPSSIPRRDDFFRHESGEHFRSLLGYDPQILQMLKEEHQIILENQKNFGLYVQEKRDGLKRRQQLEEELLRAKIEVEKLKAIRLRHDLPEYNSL
B10: Beta-crystallin A4 (Homo sapiens), P53673 (parent)
chain: MTLQCTKSAGPWKMVVWDEDGFQGRRHEFTAECPSVLELGFETVRSLKVLSGAWVGFEHAGFQGQQYILERGEYPSWDAWGGNTAYPAERLTSFRPAACANHRDSRLTIFEQENFLGKKGELSDDYPSLQAMGWEGNEVGSFHVHSGAWVCSQFPGYRGFQYVLECDHHSGDYKHFREWGSHAPTFQVQSIRRIQQ
partner: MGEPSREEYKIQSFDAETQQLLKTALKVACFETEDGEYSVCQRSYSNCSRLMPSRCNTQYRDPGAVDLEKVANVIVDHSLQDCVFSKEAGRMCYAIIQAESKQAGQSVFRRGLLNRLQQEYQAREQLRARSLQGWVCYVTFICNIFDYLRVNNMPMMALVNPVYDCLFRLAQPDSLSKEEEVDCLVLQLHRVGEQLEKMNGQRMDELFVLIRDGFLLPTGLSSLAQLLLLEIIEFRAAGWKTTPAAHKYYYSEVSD

Variants of: B1
Conditions: with SIAH1, Q8IUQ4-2

Variant | effect of a mutation on the interaction
S358L | with no effect

Variants of: B2
Conditions: with SIAH1, Q8IUQ4-2

Variant | effect of a mutation on the interaction
A182D | with no effect
A257T | with no effect

Variants of: B3
Conditions: with hsp7c_human HSPA8, P11142
Chain of hsp7c_human HSPA8, P11142 (P11142 whole entry, looked up): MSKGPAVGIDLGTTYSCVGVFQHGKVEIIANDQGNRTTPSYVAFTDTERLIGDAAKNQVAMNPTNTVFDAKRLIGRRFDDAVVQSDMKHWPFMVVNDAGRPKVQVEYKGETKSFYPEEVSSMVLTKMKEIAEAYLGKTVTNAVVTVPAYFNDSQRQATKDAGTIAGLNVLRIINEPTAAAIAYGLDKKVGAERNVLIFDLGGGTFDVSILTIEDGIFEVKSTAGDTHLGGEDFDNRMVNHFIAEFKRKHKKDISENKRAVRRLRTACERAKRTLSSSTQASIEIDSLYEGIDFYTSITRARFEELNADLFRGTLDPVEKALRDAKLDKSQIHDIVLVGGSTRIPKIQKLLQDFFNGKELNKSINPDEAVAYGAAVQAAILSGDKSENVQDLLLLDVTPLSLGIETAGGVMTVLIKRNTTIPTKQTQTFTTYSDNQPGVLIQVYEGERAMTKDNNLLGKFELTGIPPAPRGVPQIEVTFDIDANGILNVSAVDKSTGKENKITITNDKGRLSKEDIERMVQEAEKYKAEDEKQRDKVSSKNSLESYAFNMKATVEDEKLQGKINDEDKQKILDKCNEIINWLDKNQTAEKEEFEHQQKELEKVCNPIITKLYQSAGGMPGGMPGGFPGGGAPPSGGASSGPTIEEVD

Variant | effect of a mutation on the interaction
T53A | with no effect

Variants of: B4
Conditions: with hs90b_human HSP90AB1, P08238
Chain of hs90b_human HSP90AB1, P08238 (P08238 whole entry): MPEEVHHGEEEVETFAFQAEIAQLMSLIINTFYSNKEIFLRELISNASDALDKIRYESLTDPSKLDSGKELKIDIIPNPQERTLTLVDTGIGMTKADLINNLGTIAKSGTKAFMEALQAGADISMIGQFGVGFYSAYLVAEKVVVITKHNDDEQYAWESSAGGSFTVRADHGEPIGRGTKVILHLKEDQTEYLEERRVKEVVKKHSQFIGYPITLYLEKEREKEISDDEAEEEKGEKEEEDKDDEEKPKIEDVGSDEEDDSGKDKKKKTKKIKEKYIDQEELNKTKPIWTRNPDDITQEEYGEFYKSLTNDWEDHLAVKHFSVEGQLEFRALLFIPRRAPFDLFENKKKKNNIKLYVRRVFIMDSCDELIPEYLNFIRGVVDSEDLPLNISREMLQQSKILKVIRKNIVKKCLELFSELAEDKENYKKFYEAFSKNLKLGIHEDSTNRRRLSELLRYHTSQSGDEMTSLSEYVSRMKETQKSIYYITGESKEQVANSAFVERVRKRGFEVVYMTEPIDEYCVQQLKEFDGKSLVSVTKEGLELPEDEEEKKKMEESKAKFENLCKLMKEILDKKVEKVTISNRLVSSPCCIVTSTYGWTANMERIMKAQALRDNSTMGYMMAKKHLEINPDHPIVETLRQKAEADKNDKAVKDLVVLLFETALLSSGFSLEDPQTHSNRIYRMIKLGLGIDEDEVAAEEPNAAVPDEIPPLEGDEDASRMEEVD

Variant | effect of a mutation on the interaction
A320V | increasing interaction strength
W450R | increasing interaction strength

Variants of: B5
Conditions: with stf1_human NR5A1, Q13285
Chain of stf1_human NR5A1, Q13285 (Q13285 whole entry): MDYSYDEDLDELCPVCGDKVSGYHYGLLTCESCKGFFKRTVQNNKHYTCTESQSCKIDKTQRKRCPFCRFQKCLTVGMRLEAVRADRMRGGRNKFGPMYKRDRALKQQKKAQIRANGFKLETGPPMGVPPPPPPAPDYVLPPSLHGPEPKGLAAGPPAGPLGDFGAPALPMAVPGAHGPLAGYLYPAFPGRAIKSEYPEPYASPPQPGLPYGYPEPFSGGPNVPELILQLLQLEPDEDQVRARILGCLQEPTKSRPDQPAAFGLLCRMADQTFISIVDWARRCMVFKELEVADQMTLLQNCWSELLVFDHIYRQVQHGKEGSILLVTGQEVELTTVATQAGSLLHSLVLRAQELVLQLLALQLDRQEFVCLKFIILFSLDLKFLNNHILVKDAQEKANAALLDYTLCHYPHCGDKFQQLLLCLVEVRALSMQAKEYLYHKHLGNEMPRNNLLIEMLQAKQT

Variant | effect of a mutation on the interaction
W105C | with no effect

Variants of: B6
Conditions: with MTUS2, Q5JR59-3
Target sequence in this assay (Q5JR59 other isoform, or with tags, fused parts or gaps): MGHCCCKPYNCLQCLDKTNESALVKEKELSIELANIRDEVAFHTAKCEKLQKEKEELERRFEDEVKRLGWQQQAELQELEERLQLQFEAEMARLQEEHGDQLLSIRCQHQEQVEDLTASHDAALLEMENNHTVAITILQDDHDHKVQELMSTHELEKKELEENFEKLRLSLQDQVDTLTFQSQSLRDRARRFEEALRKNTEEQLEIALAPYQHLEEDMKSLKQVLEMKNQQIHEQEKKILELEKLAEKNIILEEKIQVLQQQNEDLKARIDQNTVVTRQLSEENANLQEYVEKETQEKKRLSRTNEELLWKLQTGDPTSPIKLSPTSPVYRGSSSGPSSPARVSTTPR

Variant | effect of a mutation on the interaction
A264V | with no effect
S644P | disrupting interaction strength
S140F | disrupting interaction strength

Variants of: B7
Conditions: with SIAH1, Q8IUQ4-2

Variant | effect of a mutation on the interaction
L107V | with no effect

Variants of: B8
Conditions: with MTUS2, Q5JR59-3
Target sequence in this assay (Q5JR59 other isoform, or with tags, fused parts or gaps): as above

Variant | effect of a mutation on the interaction
Q2R | with no effect
Q2L | with no effect
R44H | with no effect

Variants of: B9
Conditions: with FSBP

Variant | effect of a mutation on the interaction
W94R | disrupting interaction strength

Variants of: B10
Conditions: with MIF4GD

Variant | effect of a mutation on the interaction
L69P | disrupting interaction strength
F94S | disrupting interaction strength
V36M | disrupting interaction strength
